Experimental data published in patent US20110059064A1.

Key:
[1] = target: T1, human voltage-gated potassium channel Kv1.3, expressed endogenously in human peripheral blood T cells (human), P22001
[2] = target: T1, human voltage-gated potassium channel …; remark: listed apart in the source
[3] = target: human Kv1.2 channel expressed in Cos-7 cells (human), P16389
[4] = target: T2, mouse Kv1.1 channel stably expressed in L929 cells (mouse), P16388
T2 chain: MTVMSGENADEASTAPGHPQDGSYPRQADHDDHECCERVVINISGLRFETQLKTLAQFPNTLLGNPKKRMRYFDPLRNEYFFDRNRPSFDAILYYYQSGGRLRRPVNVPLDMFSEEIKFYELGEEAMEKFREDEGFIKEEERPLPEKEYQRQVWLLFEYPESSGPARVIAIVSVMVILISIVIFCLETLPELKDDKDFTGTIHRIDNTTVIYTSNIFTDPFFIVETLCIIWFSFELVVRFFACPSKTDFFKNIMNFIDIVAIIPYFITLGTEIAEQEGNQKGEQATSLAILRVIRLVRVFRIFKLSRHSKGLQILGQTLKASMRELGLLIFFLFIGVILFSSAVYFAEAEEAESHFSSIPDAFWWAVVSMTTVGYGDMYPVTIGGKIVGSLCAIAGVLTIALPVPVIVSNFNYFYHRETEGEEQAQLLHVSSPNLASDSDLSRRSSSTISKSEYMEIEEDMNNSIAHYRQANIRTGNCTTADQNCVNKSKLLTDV

[5] = target: EGFP-tagged human IKCa1 Ca2+-activated K channel expressed in Cos-7 cells (human), O15554
Sequence of EGFP-tagged human IKCa1 Ca2+-activated K channel expressed in Cos-7 cells (human), O15554 (O15554 whole entry): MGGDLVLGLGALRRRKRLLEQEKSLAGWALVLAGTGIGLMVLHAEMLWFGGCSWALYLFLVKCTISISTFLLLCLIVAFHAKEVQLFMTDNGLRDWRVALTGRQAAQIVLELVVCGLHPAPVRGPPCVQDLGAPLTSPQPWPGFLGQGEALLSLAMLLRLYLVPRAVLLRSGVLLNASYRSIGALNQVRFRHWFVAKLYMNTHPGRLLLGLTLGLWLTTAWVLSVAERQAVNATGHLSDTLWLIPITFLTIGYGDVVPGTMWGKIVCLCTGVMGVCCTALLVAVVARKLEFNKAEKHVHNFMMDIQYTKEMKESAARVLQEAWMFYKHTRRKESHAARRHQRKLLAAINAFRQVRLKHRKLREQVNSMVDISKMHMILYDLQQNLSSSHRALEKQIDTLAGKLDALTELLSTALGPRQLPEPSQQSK

T1 sequence (P22001 whole entry): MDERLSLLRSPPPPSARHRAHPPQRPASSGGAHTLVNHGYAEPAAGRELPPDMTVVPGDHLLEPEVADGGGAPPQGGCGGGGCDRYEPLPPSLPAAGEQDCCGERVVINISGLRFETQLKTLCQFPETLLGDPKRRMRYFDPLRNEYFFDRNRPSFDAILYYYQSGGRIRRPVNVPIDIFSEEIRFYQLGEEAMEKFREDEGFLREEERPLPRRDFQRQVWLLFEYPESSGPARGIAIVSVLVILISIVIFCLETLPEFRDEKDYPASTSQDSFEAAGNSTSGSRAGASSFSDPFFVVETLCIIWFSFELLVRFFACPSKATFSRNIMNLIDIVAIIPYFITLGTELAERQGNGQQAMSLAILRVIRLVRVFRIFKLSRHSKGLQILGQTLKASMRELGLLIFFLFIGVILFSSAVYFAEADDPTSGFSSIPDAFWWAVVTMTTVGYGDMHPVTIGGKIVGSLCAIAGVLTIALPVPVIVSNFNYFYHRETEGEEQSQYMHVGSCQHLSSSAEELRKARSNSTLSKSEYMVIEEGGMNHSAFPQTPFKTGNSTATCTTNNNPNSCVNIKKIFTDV
Sequence of human Kv1.2 channel expressed in Cos-7 cells (human), P16389 (P16389 whole entry): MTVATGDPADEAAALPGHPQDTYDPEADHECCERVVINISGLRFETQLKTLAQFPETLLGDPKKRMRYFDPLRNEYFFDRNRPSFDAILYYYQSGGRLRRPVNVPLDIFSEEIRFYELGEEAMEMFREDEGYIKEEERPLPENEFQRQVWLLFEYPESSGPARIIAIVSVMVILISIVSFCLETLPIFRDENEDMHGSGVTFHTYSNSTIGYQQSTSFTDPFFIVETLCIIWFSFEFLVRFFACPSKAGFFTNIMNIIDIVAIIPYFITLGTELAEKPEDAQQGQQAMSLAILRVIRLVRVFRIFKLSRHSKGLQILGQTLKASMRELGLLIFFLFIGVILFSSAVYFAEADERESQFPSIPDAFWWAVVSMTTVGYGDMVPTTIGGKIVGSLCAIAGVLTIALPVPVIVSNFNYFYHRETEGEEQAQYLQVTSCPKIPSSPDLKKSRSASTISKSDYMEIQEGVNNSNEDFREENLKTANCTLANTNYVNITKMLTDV

## AAAISCVGSPECPPKCRAQGCKNGKCMNRKCKCYYC (modifications not checked) [Vm24 (native peptide purified from the venom of Vaejovis mexicanus smithi)]
[1]
  Kd: 2.9 pM
[2]
  koff: 0.00026 s⁻¹
  time constant for washout: 3800 s
[3]
  Kd: 5 to 10 nM
  selectivity for hKv1.3 over hKv1.2 (fold): > 1500 fold
[4]
  Kd: 30 to 40 nM
  selectivity for hKv1.3 over mKv1.1 (fold): > 10000 fold
[5]
  Kd: 14 nM
  selectivity for hKv1.3 over hIKCa1 (fold): > 4500 fold
